Measurements as given in article PMC6580504, “A novel hydroxycinnamoyl transferase for synthesis of hydroxycinnamoyl spermine conjugates in plants” (BMC Plant Biology, 2019).
Numbering of substitutions follows the chain as printed.

Experiments:
SmSpmHT = molecular target: T1, SmSpmHT (Solanum virginianum, UniProt A0A1I9J7Z8); test: spectrophotometric microplate assay; assay type: biochemical; conditions: 0.1 M Tris-HCl, 10 mM EDTA, pH 9.0, 30 °C
T1 construct: full-length ORF, 447 residues; N-terminal His-SUMO fusion from pRham N-His SUMO Kan, SUMO tag removed with SUMO Express Protease; bacterial expression
T1 sequence (A0A1I9J7Z8 1-447): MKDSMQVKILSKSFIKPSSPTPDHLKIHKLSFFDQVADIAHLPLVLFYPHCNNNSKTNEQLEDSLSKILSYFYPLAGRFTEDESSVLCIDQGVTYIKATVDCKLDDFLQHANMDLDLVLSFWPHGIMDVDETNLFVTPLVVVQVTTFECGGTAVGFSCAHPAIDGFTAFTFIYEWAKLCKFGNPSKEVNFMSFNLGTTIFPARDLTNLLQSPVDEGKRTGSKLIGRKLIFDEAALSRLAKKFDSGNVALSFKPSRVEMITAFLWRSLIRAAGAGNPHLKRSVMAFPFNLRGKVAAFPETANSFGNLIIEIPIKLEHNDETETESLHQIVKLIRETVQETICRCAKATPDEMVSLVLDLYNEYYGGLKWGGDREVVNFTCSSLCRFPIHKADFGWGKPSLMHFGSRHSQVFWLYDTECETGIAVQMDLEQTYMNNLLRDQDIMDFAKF

purified protein [1] = substrate: CC(C)(COP(=O)(O)OP(=O)(O)OC[C@H]1O[C@@H](n2cnc3c(N)ncnc32)[C@H](O)[C@@H]1OP(=O)(O)O)[C@@H](O)C(=O)NCCC(=O)NCCSC(=O)/C=C/c1ccc(O)cc1; test: purified protein; assay type: biochemical, Solanum richardii; conditions: 2.5 mM spermine, 0.1 M Tris-HCl, 10 mM EDTA, pH 9.0, 30 °C, acyl donor varied 0 to 240 μM
purified protein [2] = substrate: COc1cc(/C=C/C(=O)SCCNC(=O)CCNC(=O)[C@H](O)C(C)(C)COP(=O)(O)OP(=O)(O)OC[C@H]2O[C@@H](n3cnc4c(N)ncnc43)[C@H](O)[C@@H]2OP(=O)(O)O)ccc1O; test: purified protein; assay type: biochemical, Solanum richardii; conditions: 2.5 mM spermine, 0.1 M Tris-HCl, 10 mM EDTA, pH 9.0, 30 °C, acyl donor varied 0 to 240 μM
purified protein [3] = substrate: CC(C)(COP(=O)(O)OP(=O)(O)OC[C@H]1O[C@@H](n2cnc3c(N)ncnc32)[C@H](O)[C@@H]1OP(=O)(O)O)[C@@H](O)C(=O)NCCC(=O)NCCSC(=O)/C=C/c1ccc(O)c(O)c1; test: purified protein; assay type: biochemical, Solanum richardii; conditions: 2.5 mM spermine, 0.1 M Tris-HCl, 10 mM EDTA, pH 9.0, 30 °C, acyl donor varied 0 to 240 μM

For `NCCCNCCCCNCCCN` [spermine], the spectrophotometric microplate assay (SmSpmHT; acyl acceptor, 2.5 mM, hydroxycinnamoyl-CoA donor 120 μM) was “The recombinant proteins showed the same substrate specificity, pH preference, and catalytic activity as SrSpmHT”.

`CC(C)(COP(=O)(O)OP(=O)(O)OC[C@H]1O[C@@H](n2cnc3c(N)ncnc32)[C@H](O)[C@@H]1OP(=O)(O)O)[C@@H](O)C(=O)NCCC(=O)NCCSC(=O)/C=C/c1ccc(O)c(O)c1` [caffeoyl-CoA] was tested, and the spectrophotometric microplate assay (SmSpmHT; acyl donor, 120 μM, spermine 2.5 mM) was “The recombinant proteins showed the same substrate specificity, pH preference, and catalytic activity as SrSpmHT”.

B1: SrSpmHT (Solanum richardii) (protein)
chain: T1 sequence (A0A1I9J7Z8 1-447) with K8N, M442I
notes: full-length ORF, 447 residues; N-terminal His-SUMO fusion from pRham N-His SUMO Kan, SUMO tag removed with SUMO Express Protease
Work on B1 yielded a Km (purified protein [1]) of 49.0 ± 1.2 µM, a Vmax (purified protein [1]) of 8.15 ± 0.204 µmol/min/mg and a kcat (purified protein [1]) of 8.5 ± 0.21 s⁻¹. The kcat/Km (purified protein [1]) was 173000 ± 1000 M⁻¹ s⁻¹, the Km (purified protein [2]) was 106.1 ± 9.0 µM and the Vmax (purified protein [2]) was 13.4 ± 0.48 µmol/min/mg. The kcat (purified protein [2]) was 13.9 ± 0.5 s⁻¹, the kcat/Km (purified protein [2]) was 132000 ± 6000 M⁻¹ s⁻¹ and the Km (purified protein [3]) was 478.4 ± 46.5 µM. It also gave a Vmax (purified protein [3]) of 68.8 ± 6.08 µmol/min/mg, a kcat (purified protein [3]) of 71.5 ± 6.3 s⁻¹ and a kcat/Km (purified protein [3]) of 150000 ± 1000 M⁻¹ s⁻¹.
